{
  "source": "paper PMC5037430",
  "about": "“High throughput cell-based assay for identification of glycolate oxidase inhibitors as a potential treatment for Primary Hyperoxaluria Type 1” (Scientific Reports, 2016)",
  "substrate": "O=C(O)CO",
  "assay": "purified protein",
  "settings": "FMN",
  "data": [
    {"protein": "glycolate oxidase (GO); hydroxyacid oxidase 1 (HAO1) (Homo sapiens) (protein) MLPRLICINDYEQHAKSVLPKSIYDYYRSGANDEETLADNIAAFSRWKLYPRMLRNVAETDLSTSVLGQRVSMPICVGATAMQRMAHVDGELATVRACQSLGTGMMLSSWATSSIEEVAEAGPEALRWLQLYIYKDREVTKKLVRQAEKMGYKAIFVTVDTPYLGNRLDDVRNRFKLPPQLRMKNFETSTLSFSPEENFGDDSGLAAYVAKAIDPSISWEDIKWLRRLTSLPIVAKGILRGDDAREAVKHGLNGILVSNHGARQLDGVPATIDVLPEIVEAVEGKVEVFLDGGVRKGTDVLKALALGAKAVFVGRPIVWGLAFQGEKGVQDVLEILKEEFRLAMALSGCQNVKVIDKTLVRKNPLAVSKI", "values": [
      {"measurement": "Km", "value": 74.5, "unit": "µM"}
    ]}
  ]
}
